According to US20210032365A1 (Chugai, published 2021):

How the values were obtained:
[1] = target: T1, human C1s (human, UniProt P09871 16-688); assay: SPR; KD at pH 5.8 (3 uM Ca) over KD at pH 7.4 (1.2 mM Ca)
T1 construct: Analyte in the Biacore assays; also called hC1s; serum-derived human C1s (CompTech)
T1 sequence: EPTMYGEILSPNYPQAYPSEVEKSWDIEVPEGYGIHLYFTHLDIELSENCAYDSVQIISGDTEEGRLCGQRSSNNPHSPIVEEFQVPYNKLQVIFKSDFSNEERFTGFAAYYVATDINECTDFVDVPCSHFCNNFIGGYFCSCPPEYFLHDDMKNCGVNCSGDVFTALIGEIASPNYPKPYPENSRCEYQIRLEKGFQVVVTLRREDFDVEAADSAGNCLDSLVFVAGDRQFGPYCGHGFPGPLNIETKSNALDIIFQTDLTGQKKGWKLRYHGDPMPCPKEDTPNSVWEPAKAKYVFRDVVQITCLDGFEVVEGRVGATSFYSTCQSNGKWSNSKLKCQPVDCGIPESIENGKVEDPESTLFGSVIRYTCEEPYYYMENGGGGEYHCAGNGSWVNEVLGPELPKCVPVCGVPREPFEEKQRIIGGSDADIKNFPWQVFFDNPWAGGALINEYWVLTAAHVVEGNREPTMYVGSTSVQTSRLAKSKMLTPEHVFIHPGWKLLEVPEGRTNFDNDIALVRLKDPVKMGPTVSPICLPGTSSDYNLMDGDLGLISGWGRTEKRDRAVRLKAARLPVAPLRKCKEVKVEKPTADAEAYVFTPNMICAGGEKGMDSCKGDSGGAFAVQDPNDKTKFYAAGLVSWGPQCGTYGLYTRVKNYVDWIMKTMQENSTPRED
Experimental: (§1) All variants were transiently expressed and purified by the method described above. The binding affinity of each histidine-substituted variant at pH 7.4 and pH 5.8 was determined at 37 degrees C. using Biacore T200 instrument (GE Healthcare). Recombinant Protein A/G (Pierce) was immobilized onto all flow cells of a CM4 sensor chip using an amine coupling kit (GE Healthcare). Antibodies and analytes were prepared in 7(+) buffer (20 mM ACES, 150 mM NaCl, 1.2 mM CaCl2, 0.05% Tween 20, 0.005% NaN3, pH 7.4), 5(+) buffer (20 mM ACES, 150 mM NaCl, 1.2 mM CaCl2, 0.05% Tween 20, 0.005% NaN3, pH 5.8), or 5(−) buffer (20 mM ACES, 150 mM NaCl, 3 micro M CaCl2, 0.05% Tween 20, 0.005% NaN3, pH 5.8). Each antibody was captured onto the sensor surface by protein A/G. Antibody capture levels were aimed at 200 resonance unit (RU). Serum-derived human C1s (CompTech) or recombinant C1s prepared in EXAMPLE 1 was injected at 50 nM, followed by dissociation. The sensor surface was regenerated in each cycle with 10 mM Glycine-HCl, pH 1.5. […] The ratio of KD 5.8+ to KD 7.4+(“KD 5+/7+”) and that of KD 5.8− to KD 7.4+(“KD 5−/7+”) were calculated. When the KD 5+/7+ or KD 5−/7+ of a variant is larger than that of the parent antibody IPN009VH2-SG4GK/IPN009VK3-SK1, that variant is considered to be “pH”- or “pH and Ca”-dependent, respectively. When binding response in 5(+) buffer and/or in 5(−) buffer of a variant is much lower than that of IPN09VH2/IPN009VK3, that variant is also considered as “pH”- and/or “pH and Ca”-dependent. Therefore, such mutations are effective to generate “pH”- and/or “pH and Ca”-dependent antibody. To further enhance “pH” and/or “pH and Ca” dependency, a combination of histidine mutations was conducted. Antibodies with combinations of histidine mutations were evaluated using Biacore by the method described above.

[2] = target: T1, human C1s; assay: SPR; KD at pH 5.8 (1.2 mM Ca) over KD at pH 7.4 (1.2 mM Ca)
Experimental: as §1

[3] = target: T1, human C1s; assay: SPR (Biacore T200, 37C), Ab captured on protein A/G; pH 5.8, 3 uM Ca
Experimental: as §1

[4] = target: T1, human C1s; assay: SPR (Biacore T200, 37C), Ab captured on protein A/G; pH 5.8, 1.2 mM Ca
Experimental: as §1

[5] = target: T1, human C1s; assay: SPR (Biacore T200, 37C), Ab captured on protein A/G; pH 7.4, 1.2 mM Ca
Experimental: as §1

[6] = target: T1, human C1s; assay: SPR (Biacore T200, 37C), Ab captured on protein A/G; pH 5.8, 1.2 mM Ca; pH 5.8, 1.2 mM Ca
[7] = target: T1, human C1s; assay: SPR (Biacore T200, 37C), Ab captured on protein A/G; pH 7.4, 1.2 mM Ca; pH 7.4, 1.2 mM Ca
Experimental: All variants were transiently expressed and purified by the method described above. The binding affinity of each histidine-substituted variant at pH 7.4 and pH 5.8 was determined at 37 degrees C. using Biacore T200 instrument (GE Healthcare). Recombinant Protein A/G (Pierce) was immobilized onto all flow cells of a CM4 sensor chip using an amine coupling kit (GE Healthcare). Antibodies and analytes were prepared in 7(+) buffer (20 mM ACES, 150 mM NaCl, 1.2 mM CaCl2, 0.05% Tween 20, 0.005% NaN3, pH 7.4), 5(+) buffer (20 mM ACES, 150 mM NaCl, 1.2 mM CaCl2, 0.05% Tween 20, 0.005% NaN3, pH 5.8), or 5(−) buffer (20 mM ACES, 150 mM NaCl, 3 micro M CaCl2, 0.05% Tween 20, 0.005% NaN3, pH 5.8). Each antibody was captured onto the sensor surface by protein A/G. Antibody capture levels were aimed at 200 resonance unit (RU). Serum-derived human C1s (CompTech) or recombinant C1s prepared in EXAMPLE 1 was injected at 50 nM, followed by dissociation. The sensor surface was regenerated in each cycle with 10 mM Glycine-HCl, pH 1.5. […] The ratio of KD 5.8+ to KD 7.4+(“KD 5+/7+”) and that of KD 5.8− to KD 7.4+(“KD 5−/7+”) were calculated. […] Antibodies with combinations of histidine mutations were evaluated using Biacore by the method described above.

[8] = target: T1, human C1s; assay: SPR (Biacore T200, 37C), Ab captured on protein A/G, serum C1s 12.5 and 50 nM; pH 7.4, 1.2 mM Ca
[9] = target: T1, human C1s; assay: SPR; koff (5.8+ of 775+): extra dissociation phase at pH 5.8 (1.2 mM Ca) right after the pH 7.4 dissociation, Scrubber fit
[10] = target: T1, human C1s; assay: SPR (Biacore T200, 37C), Ab captured on protein A/G, serum C1s 200 and 800 nM; pH 5.8, 1.2 mM Ca; value marked 'Not Adopted due to low binding response at pH 5.8'
Experimental: (§2) The binding affinity of all histidine-substituted variants at pH 7.4 and pH 5.8 were determined at 37 degrees C. using Biacore T200 instrument (GE Healthcare). Recombinant Protein A/G (Pierce) was immobilized onto all flow cells of a CM4 sensor chip using amine coupling kit (GE Healthcare). Antibodies and analytes were prepared in 7(+) buffer (20 mM ACES, 150 mM NaCl, 1.2 mM CaCl2, 0.05% Tween 20, 0.005% NaN3, pH 7.4) or 5(+) buffer (20 mM ACES, 150 mM NaCl, 1.2 mM CaCl2), 0.05% Tween 20, 0.005% NaN3, pH 5.8). Each antibody was captured onto the sensor surface by protein A/G. Antibody capture levels were aimed at 200 resonance unit (RU). […] Sensor surface was regenerated each cycle with 10 mM Glycine-HCl pH 1.5. […] An additional dissociation phase at pH 5.8 was integrated immediately after the dissociation phase at pH 7.4. This dissociation rate in 5(+) buffer was determined by processing and fitting data using Scrubber 2.0 (BioLogic Software) curve fitting software.

[11] = target: T1, human C1s; assay: SPR; KD at pH 5.8 over KD at pH 7.4, both 1.2 mM Ca
[12] = target: T1, human C1s; assay: SPR (Biacore T200, 37C), Ab captured on protein A/G, serum C1s 50 and 200 nM; pH 5.8, 1.2 mM Ca
Experimental: as §2

B1: C1_IPN92H0288-SG4GK/IPN93L0211-SK1 (antibody, human IgG4 S228P, kappa)
heavy: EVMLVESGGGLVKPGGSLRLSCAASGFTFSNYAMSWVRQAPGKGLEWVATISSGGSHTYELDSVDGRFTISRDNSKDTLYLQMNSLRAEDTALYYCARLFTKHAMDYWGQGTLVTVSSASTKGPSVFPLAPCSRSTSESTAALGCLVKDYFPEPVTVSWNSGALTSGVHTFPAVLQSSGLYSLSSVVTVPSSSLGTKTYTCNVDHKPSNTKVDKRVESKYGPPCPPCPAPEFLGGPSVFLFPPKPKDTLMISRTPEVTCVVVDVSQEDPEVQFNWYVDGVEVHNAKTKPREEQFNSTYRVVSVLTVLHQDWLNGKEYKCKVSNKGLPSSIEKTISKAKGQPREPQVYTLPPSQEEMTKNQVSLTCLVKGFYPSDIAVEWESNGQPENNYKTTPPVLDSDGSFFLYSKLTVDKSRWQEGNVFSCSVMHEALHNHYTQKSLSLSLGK
light: QIVLTQSPATLSLSPGERATLSCTASSEVSESYLHWYQQKPGKAPKLWIYSTSNLASGVPSRFSGSGSGTDYTLTISSLQPEDFATYYCHQYYRLHPITFGQGTKLEIKRTVAAPSVFIFPPSDEQLKSGTASVVCLLNNFYPREAKVQWKVDNALQSGNSQESVTEQDSKDSTYSLSSTLTLSKADYEKHKVYACEVTHQGLSSPVTKSFNRGEC
notes: also called IPN92H0288/IPN93L0211
KD 5(-)/7(+) [1]: 6.23 | KD 5(+)/7(+) [2]: 9.9 | koff [3]: 0.00504 s⁻¹ | kon [3]: 485000 M⁻¹ s⁻¹ | koff [4]: 0.0292 s⁻¹ | kon [5]: 527000 M⁻¹ s⁻¹ | kon [6]: 1.77e+06 M⁻¹ s⁻¹ | koff [7]: 0.00088 s⁻¹

B2: IPN92H0286/IPN93L0205-SG136 (antibody, human IgG1, kappa, name in Kabat numbering)
heavy: EVMLVESGGGLVKPGGSLRLSCAASGFTFSNKAMSWVRQAPGKGLEWVATISSGGSHTYYLDSVKHRFTISRDNSKDTLYLQMNSLRAEDTALYYCARLFTGHAMDYWGQGTLVTVSSASTKGPSVFPLAPSSKSTSGGTAALGCLVKDYFPEPVTVSWNSGALTSGVHTFPAVLQSSGLYSLSSVVTVPSSSLGTQTYICNVNHKPSNTKVDKKVEPKSCDKTHTCPPCPAPELRRGPSVFLFPPKPKDTLMISRTPEVTCVVVDVSHEDPEVKFNWYVDGVEVHNAKTKPREEQYNSTYRVVSVLTVLHQDWLNGKEYKCKVSNKGLPSSIEKTISKAKGQPREPQVYTLPPSREEMTKNQVSLTCLVKGFYPSDIAVEWESNGQPENNYKTTPPVLDSDGSFFLYSKLTVDKSRWQQGNVFSCSVMHEALHNHYTQKSLSLSP
light: QIVLTQSPATLSLSPGERATLSCTASSSVSSSRLHWYQQKPGKAPKLWIYSTSNLASGVPSRFSGSGSGTDYTLTISSLQPEDFATYYCHQYHRHPPITFGQGTKLEIKRTVAAPSVFIFPPSDEQLKSGTASVVCLLNNFYPREAKVQWKVDNALQSGNSQESVTEQDSKDCTYSLSSTLTLSKADYEKHKVYACEVTHQGLSSPVTKSFNRGEC
notes: also called IPN92H0286/IPN93L0205 (lot PPU2048); IPN92H0286/IPN93L205-SG136
Kd [8]: 1.43 nM | koff [8]: 0.000822 s⁻¹ | koff [9]: 0.0134 s⁻¹ | Kd [10]: 8530 nM | koff [10]: 0.0237 s⁻¹

B3: IPN009VH2/IPN93L0023-SG136 (antibody, human IgG1, kappa, name in Kabat numbering)
heavy: EVMLVESGGGLVKPGGSLRLSCAASGFTFSNYAMSWVRQAPGKGLEWVATISSGGSHTYYLDSVKGRFTISRDNSKDTLYLQMNSLRAEDTALYYCARLFTGYAMDYWGQGTLVTVSSASTKGPSVFPLAPSSKSTSGGTAALGCLVKDYFPEPVTVSWNSGALTSGVHTFPAVLQSSGLYSLSSVVTVPSSSLGTQTYICNVNHKPSNTKVDKKVEPKSCDKTHTCPPCPAPELRRGPSVFLFPPKPKDTLMISRTPEVTCVVVDVSHEDPEVKFNWYVDGVEVHNAKTKPREEQYNSTYRVVSVLTVLHQDWLNGKEYKCKVSNKGLPSSIEKTISKAKGQPREPQVYTLPPSREEMTKNQVSLTCLVKGFYPSDIAVEWESNGQPENNYKTTPPVLDSDGSFFLYSKLTVDKSRWQQGNVFSCSVMHEALHNHYTQKSLSLSP
light: QIVLTQSPATLSLSPGERATLSCTASSSVSSSYLHWYQQKPGKAPKLWIYSTSNLASGVPSRFSGSGSGTDYTLTISSLQPEDFATYYCHQYYRHPPITFGQGTKLEIKRTVAAPSVFIFPPSDEQLKSGTASVVCLLNNFYPREAKVQWKVDNALQSGNSQESVTEQDSKDCTYSLSSTLTLSKADYEKHKVYACEVTHQGLSSPVTKSFNRGEC
notes: also called IPN009VH2/IPN93L0023 (lot PPU2043)
KD (5.8+)/KD (7.4+) [11]: 0.9 | Kd [12]: 2.48 nM | Kd [8]: 2.77 nM | koff [8]: 0.000628 s⁻¹ | koff [9]: 0.000691 s⁻¹

B4: IPN92H0038/IPN93L0024-SG136 (antibody, human IgG1, kappa, name in Kabat numbering)
heavy: EVMLVESGGGLVKPGGSLRLSCAASGFTFSNYAMSWVRQAPGKGLEWVATISSGGSHTYYLDSVKHRFTISRDNSKDTLYLQMNSLRAEDTALYYCARLFTGHAMDYWGQGTLVTVSSASTKGPSVFPLAPSSKSTSGGTAALGCLVKDYFPEPVTVSWNSGALTSGVHTFPAVLQSSGLYSLSSVVTVPSSSLGTQTYICNVNHKPSNTKVDKKVEPKSCDKTHTCPPCPAPELRRGPSVFLFPPKPKDTLMISRTPEVTCVVVDVSHEDPEVKFNWYVDGVEVHNAKTKPREEQYNSTYRVVSVLTVLHQDWLNGKEYKCKVSNKGLPSSIEKTISKAKGQPREPQVYTLPPSREEMTKNQVSLTCLVKGFYPSDIAVEWESNGQPENNYKTTPPVLDSDGSFFLYSKLTVDKSRWQQGNVFSCSVMHEALHNHYTQKSLSLSP
light: QIVLTQSPATLSLSPGERATLSCTASSSVSSSYLHWYQQKPGKAPKLWIYSTSNLASGVPSRFSGSGSGTDYTLTISSLQPEDFATYYCHQYYRLHPITFGQGTKLEIKRTVAAPSVFIFPPSDEQLKSGTASVVCLLNNFYPREAKVQWKVDNALQSGNSQESVTEQDSKDCTYSLSSTLTLSKADYEKHKVYACEVTHQGLSSPVTKSFNRGEC
notes: also called IPN92H0038/IPN93L0024 (lot PPU2045)
KD (5.8+)/KD (7.4+) [11]: 8.9 | Kd [12]: 10.7 nM | Kd [8]: 1.2 nM | koff [8]: 0.000461 s⁻¹ | koff [9]: 0.00354 s⁻¹
